B1: PCDHGA10 (parent)
chain: FGIEIEVTDINDNAPKFQAENLDV
B2: FUT8 (parent)
chain: NWRYATGGWETVFRPVSETCTDRS

Variants of: B1
Assay: protein stability index of a GFP-peptide fusion (GPS, HEK-293T) (PSI 1-6); higher = more stable
Conditions: c terminus: a fixed tail appended
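Also: lentivirally expressed fusions sorted by FACS into six bins by GFP to DsRed ratio, PSI derived from sequencing read proportions per bin multiplied by bin number.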

Protein stability index: each site, then its substitutions
P15: L 2.41; C 2.5; T 3.41; D 3.62; Y 2.23; H 2.73; K 3.51; M 2.66; I 2.25; R 3.36; S 3.14; V 2.55; G 3.52; A 3.37; E 3.24; Q 3.11; F 1.84; W 2.05; N 3.6
V24: T 3.47; Q 3.62; N 3.28; C 2.8; Y 2.93; R 3.71; D 4.22; P 3.4; A 3.48; F 2.64; G 3.7; I 2.56; M 2.5; L 3.43; W 2.81; H 3.6; S 3.5; K 3.52; E 3.46
D12: M 1.75; W 1.6; L 1.49; S 2.25; V 2.05; Y 1.56; Q 2.71; T 1.99; R 2.48; N 2.15; P 2.42
A19: E 3.83; L 2; P 2.6; K 3.37; S 2.62; Q 3.32; G 3.51; D 3.56; I 2.26; N 2.82; F 2.42; T 2.84; V 2.37; R 3; M 2.53; C 2.59; H 3.18; Y 1.95; W 1.59
A14: N 3.35; K 3.1; D 3.89; T 2.9; C 2.46; Y 1.71; I 2.49; E 3.83; G 3.08; Q 3.58; W 1.67; F 2.35; V 3.4; S 3.13; L 1.98; H 2.79; P 2.69; M 2.42; R 2.83
E20: A 2.15; K 2.08; C 1.61; G 2.11; L 1.33; M 2.06; P 2.13; S 2.71; T 2.34; I 2.72; V 1.91; D 2.82; R 1.83; Q 2.4; N 2.27; F 2.51; W 2.11; Y 2.59; H 2.02
L22: N 3.69; T 3.65; F 2.66; R 3.7; K 4.02; I 3.02; G 3.97; S 4.17; Y 2.83; C 3.27; W 2.53; A 3.34; V 3.42; H 3.4; M 2.84; D 4.21; E 4.39; P 3.36; Q 3.71
F17: W 2.52; S 3.98; E 4.81; A 4.12; N 4.15; V 3.65; D 4.36; L 3.33; H 4.28; K 4.42; T 4.14; Y 3.18; P 4.03; C 3.73; G 3.94; I 3.37; M 3.58; Q 4.14; R 3.9
N21: E 3.46; Y 1.73; S 2.54; K 3.25; P 2.6; I 1.84; W 1.37; M 2.42; R 2.07; H 2.82; T 2.89; C 2.47; F 1.84; D 3.65; V 2.33; Q 2.8; G 2.83; A 2.49; L 2.13
K16: A 2.53; G 3.56; L 2.31; R 3.02; S 2.52; Y 2.18; W 1.72; C 2.45; M 3.07; I 2.48; T 2.91; P 3.31; F 2.21; V 2.64; E 3.88; Q 3.35; H 2.76; D 3.46; N 2.94
D23: R 1.93; H 1.8; M 2.52; T 1.95; S 2.06; I 1.93; V 2.56; N 2.85; Y 1.69; L 2.17; A 2.3; W 1.46; G 2.29; Q 2.42; E 2.59; P 2.32; K 2.08; C 1.82; F 1.55
N13: E 3.35; V 2.27; I 2.66; P 2.83; R 2.67; Y 1.78; A 2.85; G 2.99; M 2.08; F 1.84; D 3.43; H 2.36; S 2.48; Q 3.21; T 3.1; K 3.12; C 2.52; W 1.54; L 1.91
Q18: T 2.77; M 2.13; S 2.1; I 2.13; Y 1.53; V 2.54; G 2.94; N 3.25; D 3.56; L 2.26; K 3; E 3.33; A 2.88; C 2.44; P 2.41; F 1.68; R 2.08; H 2.93; W 1.93

Variants of: B2
Assay: as above
Conditions: c terminus: a fixed tail appended

Protein stability index, by site and new letter:
A5: Y 2.94; D 3.2; W 3.33; R 2.28; S 2.36; Q 2.91; E 2.82; L 2.66; P 1.48; H 3.69; I 1.39; M 3.05; T 2.33; F 2.43; C 1.05; N 2.95; K 3.36
T6: I 2.63; D 2.72; K 1.1; M 1.74; P 2.44; N 1.48; Q 1.6; H 1.28; E 2.25; L 1.73
R3: M 2.44; L 2.69; I 2.32; V 2.85; N 3.83; P 3.06; H 2.85; A 3.58; F 1.97; T 3.09; Q 3.15; E 3.75; C 2.76; S 2.69; W 2.46; G 3; D 3.62; Y 1.76
N1: A 1.16; W 1.53; T 1.68; L 1.99; I 3.1; E 2.44; G 2.12; H 2.74; K 2.4; Q 4.02; R 2.23; D 1.7; Y 2.88; S 2.12; V 1.83; M 1.12; C 2.35
Y4: C 2.6; I 2.63; Q 3.35; F 2.45; E 4.67; D 3.13; A 3.42; S 3.66; W 2.98; L 2.36; V 3.42; N 3.32; P 3.85; R 3.07; M 2.16; T 3.27; G 4.34; H 3.39
W2: N 3.55; G 3.72; A 3.77; H 4; F 3.12; M 3.52; Q 3.96; V 3.26; T 3.83; E 3.94; P 4.16; Y 2.74; D 3.72; S 3.25; C 2.52
